Measurements from US20090280108A1, “SERUM AMYLOID A PROTEIN IN INFLAMMATION AND OBESITY” (priority 2004, published 2009).

Assays:
[1] = tested on: Primary human coronary vascular endothelial cells (HCVECs); assay: Cytokine release from SAA-treated human coronary vascular endothelial cells (Luminex / ELISA); format: cell-based
Method: (§1) Cell Culture Conditions. Primary human coronary artery endothelial cells (HCAECs) were purchased from Cambrex (Walkersville, Md.) and grown in endothelial cell basal medium-2 (EBM-2) supplemented with EGM-2 BulletKit. Experiments were conducted between the third to fifth passages. RAW264 cells (ATCC, Manassas, Va.) were grown in RPMI medium 1640 supplemented with about 10% fetal bovine serum. These cells were seeded on 6-well tissue culture plates at about 75% confluence and grown to about 90-95% confluence. The growth medium was replaced with supplement-free media (EBM-2 basal medium for HCAECs and RPMI1640 for RAW264). About one hour after the medium change, the cells were treated with recombinant human SAA (Peprotech, Rocky Hill, N.J.). The endotoxin level for this commercial preparation is advertised as less than about 0.1 ng/μg protein. The conditioned medium was collected about 8 hours after the SAA treatment by centrifugation at about 2,000×g for about 5 minutes and frozen until use for cytokine analysis.
(§2) Cytokine analysis. […] The intra- and inter-assay CV is about 5% and about 8% respectively. […] All samples were assayed in duplicate.

[2] = tested on: mouse monocyte cell line RAW264; assay: Cytokine release from SAA-treated RAW264 monocytes (Luminex); format: cell-based; details: RAW264 cells
Method: as §1, §2

[3] = tested on: adipose tissue A-SAA production; assay: Adipose organ culture: direct effect on adipose A-SAA production in vitro; details: rosiglitazone 1 μM; dexamethasone 25 nM and insulin 7 nM; about 48 hours, SAA production between 24 to 48 hours; n=3
[4] = SAA 0.47 or 2.3 μg/ml, about 8 hours, serum-free medium, dose-dependent

lipopolysaccharide [LPS, reference compound]
did not stimulate cytokine secretion: cytokine secretion (endotoxin contamination control) ([1]; LPS 1 ng/ml) | cytokine secretion (endotoxin contamination control) ([2]; LPS 1 ng/ml)

CN(CCOc1ccc(CC2SC(=O)NC2=O)cc1)c1ccccn1 (centres unmarked) [rosiglitazone]
about 70%: reduction of insulin/dexamethasone stimulation of A-SAA secretion in the media [3]

B1: A-SAA: recombinant human SAA (Peprotech); acute-phase serum amyloid A used to treat cells (protein, UniProt P0DJI8 19-122, looked up)
Serum amyloid A-1 protein: RSFFSFLGEAFDGARDMWRAYSDMREANYIGSDKYFHARGNYDAAKRGPGGAWAAEVITDARENIQRFFGHGAEDSLADQAANEWGRSGKDPNHFRPAGLPEKY
dramatically stimulated: release of IL-6 [1, 4] | release of IL-8 [1, 4] | release of MCP-1 [1, 4] | release of plasminogen activator inhibitor-1 (PAI-1) [1, 4] | release of IL-6 [2, 4] | release of IL-8 [2, 4] | release of RANTE [2, 4] | release of TNFα [2, 4]
